Measurements taken from paper PMC5324736.
Like-named read-outs stand apart in the source and are kept apart here.

Assays:
[1] = target: eIF2•GDPNP•Met-tRNAi ternary complex; experiment: native gel or EMSA
[2] = target: eIF2•GDPNP•Met-tRNAi ternary complex; experiment: native gel or EMSA; remark: listed apart in the source

| Kd [1] [nM] | Kd [2] [nM] | Substance |
| --- | --- | --- |
| 14 | < 1 | 40S ribosomal subunit, anion exchange column preparation (complex) |
| 13 | < 1 | 40S ribosomal subunit, sucrose cushion preparation (complex) |
